From patent US20050282743A1, “Molecular interactions in cells” (Arbor Vita Corporation, priority 2001, published 2005)

Columns and labels:
[1] = target: T1, GST-KIAA1526 PDZ domain 1 (Homo sapiens (Human)), Q9P202; assay: G' assay; further: key of the grades not given here
T1 chain: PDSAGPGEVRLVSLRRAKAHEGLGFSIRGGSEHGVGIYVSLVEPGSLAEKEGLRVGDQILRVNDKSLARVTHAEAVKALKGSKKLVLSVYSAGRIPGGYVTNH

[2] = target: T2, GST-FLJ 10324 PDZ domain 1 [GST: P08515]; assay: G' assay; further: key of the grades not given here
T2 chain: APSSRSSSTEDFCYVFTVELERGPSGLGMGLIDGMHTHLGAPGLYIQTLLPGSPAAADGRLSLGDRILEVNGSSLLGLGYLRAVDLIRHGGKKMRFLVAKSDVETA

[3] = target: T3, GST-MUPP1 PDZ domain 10 (Homo sapiens (Human)), O75970; assay: G' assay; further: key of the grades not given here
T3 chain: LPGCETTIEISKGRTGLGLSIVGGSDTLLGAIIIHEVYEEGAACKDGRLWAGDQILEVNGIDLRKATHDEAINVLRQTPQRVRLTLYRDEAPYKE

[4] = target: T4, GST-Syntrophin gamma 2 PDZ domain 1 (Homo sapiens (Human)), Q9NY99; assay: G' assay; further: key of the grades not given here
T4 chain: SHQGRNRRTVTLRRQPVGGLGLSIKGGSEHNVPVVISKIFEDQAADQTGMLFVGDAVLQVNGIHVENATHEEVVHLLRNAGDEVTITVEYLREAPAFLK

[5] = target: T5, GST-INADL PDZ domain 8 (Homo sapiens (Human)), Q8NI35; assay: G' assay; further: key of the grades not given here
T5 chain: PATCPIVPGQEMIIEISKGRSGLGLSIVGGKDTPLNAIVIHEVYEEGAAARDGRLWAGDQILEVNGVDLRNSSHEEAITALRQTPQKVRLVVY

[6] = target: GST-KIAA807 [GST: P08515]; assay: G' assay; further: key of the grades not given here
GST-KIAA807 [GST: P08515], sequence (P08515 whole entry, the tested form may be a part): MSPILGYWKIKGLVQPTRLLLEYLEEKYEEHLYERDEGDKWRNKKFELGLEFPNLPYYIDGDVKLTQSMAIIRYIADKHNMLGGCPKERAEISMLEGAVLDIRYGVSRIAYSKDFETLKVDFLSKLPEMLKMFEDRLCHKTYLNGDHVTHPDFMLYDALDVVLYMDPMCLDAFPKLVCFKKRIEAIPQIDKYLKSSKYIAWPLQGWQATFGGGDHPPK

[7] = target: GST-PIST PDZ domain 1 (Mus musculus (Mouse)), Q8BH60; assay: G' assay; further: key of the grades not given here
[8] = target: T6, GST-KIAA0807(S) PDZ domain 1 (Homo sapiens (Human)), Q6P0Q8; assay: G' assay; further: key of the grades not given here
T6 chain: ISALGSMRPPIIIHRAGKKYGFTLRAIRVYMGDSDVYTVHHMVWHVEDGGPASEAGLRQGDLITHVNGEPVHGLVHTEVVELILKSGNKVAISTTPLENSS

[9] = target: T7, GST-rat SHANK 3 PDZ domain 1 (rat), Q9JLU4; assay: G' assay; further: key of the grades not given here
T7 chain: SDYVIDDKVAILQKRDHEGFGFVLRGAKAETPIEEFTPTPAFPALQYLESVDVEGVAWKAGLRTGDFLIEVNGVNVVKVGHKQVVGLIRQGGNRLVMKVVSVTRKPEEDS

[10] = target: T8, GST-EZRIN Binding Protein 50 PDZ domain 1 (Homo sapiens (Human)), O14745; assay: G' assay; further: key of the grades not given here
T8 chain: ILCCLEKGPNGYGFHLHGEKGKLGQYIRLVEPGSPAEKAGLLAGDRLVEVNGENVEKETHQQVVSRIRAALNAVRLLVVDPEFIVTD

[11] = target: T9, GST-MUPP1 PDZ domain 13 (Homo sapiens (Human)), O75970; assay: G' assay; further: key of the grades not given here
T9 chain: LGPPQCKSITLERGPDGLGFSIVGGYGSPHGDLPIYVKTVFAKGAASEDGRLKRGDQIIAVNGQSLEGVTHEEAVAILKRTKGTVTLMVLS

[12] = target: T10, GST-EZRIN Binding Protein 50 PDZ domain 2 (Homo sapiens (Human)), O14745; assay: G' assay; further: key of the grades not given here
T10 chain: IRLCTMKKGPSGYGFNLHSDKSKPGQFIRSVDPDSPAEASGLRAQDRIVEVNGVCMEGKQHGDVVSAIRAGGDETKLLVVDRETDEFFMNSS

[13] = target: T11, GST-Shank 1 PDZ domain 1 (Homo sapiens (Human)), Q9UPX8; assay: G' assay; further: key of the grades not given here
T11 chain: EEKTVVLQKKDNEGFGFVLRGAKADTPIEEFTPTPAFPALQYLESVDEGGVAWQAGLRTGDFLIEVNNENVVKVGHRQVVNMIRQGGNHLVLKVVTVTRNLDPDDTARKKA

[14] = target: T12, GST-APXL-1 PDZ domain 1 (Homo sapiens (Human)), Q13796; assay: G' assay; further: key of the grades not given here
T12 chain: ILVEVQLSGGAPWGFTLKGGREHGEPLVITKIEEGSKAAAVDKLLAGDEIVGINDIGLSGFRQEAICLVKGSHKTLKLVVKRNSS

[15] = target: T13, GST-Outer Membrane PDZ domain 1 (Homo sapiens (Human)), P57105; assay: G' assay; further: key of the grades not given here
T13 chain: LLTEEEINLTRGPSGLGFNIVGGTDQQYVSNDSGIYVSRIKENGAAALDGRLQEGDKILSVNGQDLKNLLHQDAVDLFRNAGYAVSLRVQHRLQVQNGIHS

[16] = target: T14, GST-KIAA0973 PDZ domain 1 (Homo sapiens (Human)), Q9Y2H9; assay: G' assay; further: key of the grades not given here
T14 chain: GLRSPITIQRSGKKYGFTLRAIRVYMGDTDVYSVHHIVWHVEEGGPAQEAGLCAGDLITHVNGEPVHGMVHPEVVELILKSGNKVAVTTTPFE

[17] = target: T15, GST-MINT1 PDZ domain 2 (Mus musculus (Mouse)), B2RUJ5; assay: G' assay; further: key of the grades not given here
T15 chain: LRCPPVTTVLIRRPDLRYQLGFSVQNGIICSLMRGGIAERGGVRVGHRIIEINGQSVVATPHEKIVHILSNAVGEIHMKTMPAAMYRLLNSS

[18] = target: T16, GST-ZO-2 PDZ domain 1 (Homo sapiens (Human)), Q9UDY2; assay: G' assay; further: key of the grades not given here
T16 chain: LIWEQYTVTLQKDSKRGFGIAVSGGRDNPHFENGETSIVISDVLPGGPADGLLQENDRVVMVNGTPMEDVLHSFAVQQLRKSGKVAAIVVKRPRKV

[19] = target: T17, GST-Shank 3 PDZ domain 1 (human (hypothetical, computer cloned)), Q9BYB0; assay: G' assay; further: key of the grades not given here
T17 chain: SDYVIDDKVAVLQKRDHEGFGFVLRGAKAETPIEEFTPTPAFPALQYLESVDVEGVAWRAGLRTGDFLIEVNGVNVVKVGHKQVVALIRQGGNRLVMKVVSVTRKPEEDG

[20] = target: T18, GST-PDZK1 PDZ domains 2, 3, 4, Q5T2W1; assay: G' assay; further: key of the grades not given here
T18 chain: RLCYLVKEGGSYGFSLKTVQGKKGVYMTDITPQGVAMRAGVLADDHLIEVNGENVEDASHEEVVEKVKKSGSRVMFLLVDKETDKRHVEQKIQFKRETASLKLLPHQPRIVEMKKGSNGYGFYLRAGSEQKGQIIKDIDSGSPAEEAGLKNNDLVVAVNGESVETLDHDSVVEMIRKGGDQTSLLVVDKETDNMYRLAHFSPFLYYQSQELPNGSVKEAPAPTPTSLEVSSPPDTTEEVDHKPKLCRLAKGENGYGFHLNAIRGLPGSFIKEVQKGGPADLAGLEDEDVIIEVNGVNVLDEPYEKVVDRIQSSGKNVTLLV

[21] = target: GST-KIAA0316 PDZ domain 1 (Homo sapiens (Human)), Q14CM0; assay: G' assay; further: key of the grades not given here
GST-KIAA0316 PDZ domain 1 (Homo sapiens (Human)), Q14CM0, sequence (Q14CM0 72-159): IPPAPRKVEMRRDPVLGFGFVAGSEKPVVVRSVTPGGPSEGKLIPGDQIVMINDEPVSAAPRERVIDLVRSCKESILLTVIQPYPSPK

[22] = target: T19, GST-BAI-1 Associated Protein PDZ domain 3 (Homo sapiens (Human)), Q96QZ7; assay: G' assay; further: key of the grades not given here
T19 sequence (Q96QZ7 other isoform, or with tags, fused parts or gaps): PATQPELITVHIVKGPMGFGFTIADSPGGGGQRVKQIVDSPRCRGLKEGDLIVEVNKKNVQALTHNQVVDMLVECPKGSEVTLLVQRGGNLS

[23] = target: T20, GST-PTPL1 PDZ domain 4 (Homo sapiens (Human)), Q12923; assay: G' assay; further: key of the grades not given here
T20 chain: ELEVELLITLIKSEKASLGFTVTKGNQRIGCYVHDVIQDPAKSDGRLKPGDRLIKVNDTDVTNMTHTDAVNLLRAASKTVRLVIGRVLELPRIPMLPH

[24] = target: T21, GST-KIAA1634 PDZ domain 2 (Homo sapiens (Human)), Q5TCQ9; assay: G' assay; further: key of the grades not given here
T21 chain: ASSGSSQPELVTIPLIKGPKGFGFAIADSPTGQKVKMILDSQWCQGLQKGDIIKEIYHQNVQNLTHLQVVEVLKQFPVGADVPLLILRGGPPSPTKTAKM

[25] = target: T22, GST-HEMBA 1003117 PDZ domain 1 (Homo sapiens (Human)), Q96JH8; assay: G' assay; further: key of the grades not given here
T22 chain: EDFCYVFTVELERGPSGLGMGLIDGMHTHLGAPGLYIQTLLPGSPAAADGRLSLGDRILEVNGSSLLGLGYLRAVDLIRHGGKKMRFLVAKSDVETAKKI

[26] = target: T23, GST-MINT1 PDZ domains 1, 2, Q02410; assay: G' assay; further: key of the grades not given here
T23 chain: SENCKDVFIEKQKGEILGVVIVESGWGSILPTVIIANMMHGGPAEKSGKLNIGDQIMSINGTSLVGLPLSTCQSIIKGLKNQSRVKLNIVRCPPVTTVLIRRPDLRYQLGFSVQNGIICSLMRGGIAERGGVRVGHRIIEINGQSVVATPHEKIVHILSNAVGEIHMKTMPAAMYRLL

[27] = target: T24, GST-PTPL1 PDZ domain 2 (Homo sapiens (Human)), Q12923; assay: G' assay; further: key of the grades not given here
T24 chain: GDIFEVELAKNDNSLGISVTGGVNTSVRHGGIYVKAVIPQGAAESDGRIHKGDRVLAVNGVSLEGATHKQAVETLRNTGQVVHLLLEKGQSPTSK

[28] = target: T19, GST-BAI-1 Associated Protein PDZ domain …; assay: G assay titration, PDZ 0.5 ug/ml
[29] = target: T24, GST-PTPL1 PDZ domain 2 (Homo sapiens …); assay: G assay titration, PDZ 0.5 ug/ml
[30] = target: GST-PSD95 PDZ domains 1, 2, 3 (Homo sapiens), P78352; assay: G assay competition vs 10 uM biotin-CD95 20-mer; competitor 50 uM
GST-PSD95 PDZ domains 1, 2, 3 (Homo sapiens), P78352, sequence (P78352 62-395): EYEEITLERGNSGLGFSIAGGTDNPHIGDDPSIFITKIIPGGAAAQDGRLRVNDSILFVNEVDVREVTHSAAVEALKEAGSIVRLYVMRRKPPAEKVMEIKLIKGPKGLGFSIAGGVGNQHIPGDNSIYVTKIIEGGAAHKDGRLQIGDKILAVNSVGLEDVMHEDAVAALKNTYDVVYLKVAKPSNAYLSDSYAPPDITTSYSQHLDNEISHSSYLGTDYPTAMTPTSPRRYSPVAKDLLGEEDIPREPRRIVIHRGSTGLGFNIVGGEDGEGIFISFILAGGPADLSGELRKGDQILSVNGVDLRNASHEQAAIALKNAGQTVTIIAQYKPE

[31] = target: GST-PSD95 PDZ domains 1, 2, 3 (Homo sapiens), P78352; assay: G assay competition vs 20 uM biotin-CD46 20-mer; competitor 50 uM
[32] = target: GST-PSD95 PDZ domains 1, 2, 3 (Homo sapiens), P78352; assay: G assay competition vs 10 uM biotin-KV1.3 20-mer; competitor 50 uM
[33] = target: GST-PSD95 PDZ domains 1, 2, 3 (Homo sapiens), P78352; assay: G assay competition vs 20 uM biotin-CLASP-2 20-mer; competitor 50 uM

Binder: PPATPSPRLALPAHHNATRL (modifications not checked) [Na+/Pi cotransporter 2]
- Classification [1]: 1 A450 class
- Classification [2]: 1 A450 class
- Classification [3]: 1 A450 class
- Classification [4]: 1 A450 class
- Classification [5]: 1 A450 class
- Classification [6]: 5 A450 class
- Classification [7]: 1 A450 class
- Classification [8]: 5 A450 class
- Classification [9]: 4 A450 class
- Classification [10]: 5 A450 class
- Classification [11]: 1 A450 class
- Classification [12]: 2 A450 class
- Classification [13]: 5 A450 class
- Classification [14]: 1 A450 class
- Classification [15]: 1 A450 class
- Classification [16]: 2 A450 class
- Classification [17]: 1 A450 class
- Classification [18]: 1 A450 class
- Classification [19]: 5 A450 class
- Classification [20]: 1 A450 class

Binder: DTLLLTENEGDKTEEQVSYV (modifications not checked) [serotonin receptor 5HT-2B]
- Classification [2]: 2 A450 class
- Classification [21]: 1 A450 class
- Classification [22]: 4 A450 class
- Classification [6]: 1 A450 class
- Classification [7]: 1 A450 class
- Classification [8]: 1 A450 class
- Classification [23]: 2 A450 class
- Classification [24]: 5 A450 class
- Classification [25]: 1 A450 class
- Classification [17]: 1 A450 class
- Classification [26]: 1 A450 class
- Classification [27]: 5 A450 class
- Kd [28]: 2000 nM
- Kd [29]: 200 nM

Binder: MTSSSSVV (modifications not checked) [CLASP-2 8-mer]
- % binding of labelled 20-mer [30]: 80%
- % binding of labelled 20-mer [31]: 90%
- % binding of labelled 20-mer [32]: 82%
- % binding of labelled 20-mer [33]: 85%

Binder: RNEIQSLV (modifications not checked) [unlabeled 8 amino acid peptide corresponding to the C-terminus of CD95]
- % binding of labelled 20-mer [30]: 75%
- % binding of labelled 20-mer [31]: 100%
- % binding of labelled 20-mer [32]: 87%
- % binding of labelled 20-mer [33]: 92%
